Assay results: the DeepSol protein solubility set

Test: soluble on expression in E. coli; label from the status in PepcDB or PDB records

Soluble on expression in E. coli, not soluble:
MQWETVIGLEIHAQLATQSKIFSGSSTAFGAAPNTQASLVDLAMPGTLPVLNEEAVRMACLFGLAIDARIDRQNVFARKNYFYPDLPKGYQTSQMDHPIVGKGHLDITLEDGTTKRIGITRAHLEEDAGKSLHEDFQGMSGIDLNRAGTPLLEIVSEPDIRSAKEAVAYVKAIHALVRYLGICDGNMAEGSLRCDCNVSVRPKGQAEFGTRAEIKNVNSFRFIEKAINHEIQRQIELIEDGGKVVQETRLYDPNKDETRSMRGKEEANDYRYFPCPDLLPVVIEPEYLAKLREQLPELPVQKRERFESQYGLSAYDASVLSASREMADYFEKVQGICGDAKLAANWVMVELGSLLNKDGLEIEQSPVSAEQLGGMILRIKDNTISGKLAKMVFEAMANGEGSADQIIEAKGLKQVTDSGAIEKMLDEVLAANAEQVEQYRAADEAKRGKMFGFFVGQAMKASKGKANPQQVNELLKKKLEA
MRALPICLVALMLSGCSMLSRSPVEPVQSTAPQPKAEPAKPKAPRATPVRIYTNAEELVGKPFRDLGEVSGDSCQASNQDSPPSIPTARKRMQINASKMKANAVLLHSCEVTSGTPGCYRQAVCIGSALNITAKLEHHHHHH
MRAMNDRLPSFCTPLDDRWPLPVALPGVQLRSTRFDPALLQPGDFALAGIQPPANILRAVAKRQAEFLAGRLCARAALFALDGRAQTPAVGEDRAPVWPAAISGSITHGDRWAAALVAARGDWRGLGLDVETLLEAERARYLHGEILTEGERLRFADDLERRTGLLVTLAFSLKESLFKALYPLVGKRFYFEHAELLEWRADGQARLRLLTDLSPEWRHGSELDAQFAVLDGRLLSLVAVGA
MRCVYCHNAQLQEFAPGAVGVDDLVGLARRRIGLIDAVVISGGEPTAVPGLAEAICRIHDLGLPVGLHTCGYAPKRLATLVSQPESRPDWIGLDIKALPRHMHEITGCSPRVAQSCWESLAIIDAVGIEVQTRTTLWPGSVIEQNLRELEVMVAAQGHELVVQQARF
MRDATPFYEATGHEIEVFERAWRHGLPVLLKGPTGCGKTRFVQYMARRLELPLYSVACHDDLGAADLLGRHLIGADGTWWQDGPLTRAVREGGICYLDEVVEARQDTTVAIHPLADDRRELYLERTGETLQAPPSFMLVVSYNPGYQNLLKGLKPSTRQRFVALRFDYPAAQQEARILVGESGCAETLAQRLVQLGQALRRLEQHDLEEVASTRLLIFAARLIGDGMDPREACRVALAEPLSDDPATVAALMDIVDLHVALEHHHHHH
MRDMIIVVPIGEVPSDVLSFLSENIESFYMKFGIGVKIIGSLPISAFSHAYDFYRNQYLARHFLPALSIIRRDYKALAVMGVTEVDLYESGLNFIFGIAHPGFGVALISLHRLYPEFYGEPPDRKLLKERALKEAMHELGHVFGLEHCPNPKCVMHFSNSIIDTDIKSWMYCKNCLRKLEERLGRGYVRGRTLEHHHHHH
MRDVAIIGVKNTKFGELWERSLRDIVVEAGIGAIQDAGVSGKDIDALYIGNMSGGRFVEQEHIGALIADYSGLSRNLHVPATRVEAACASGGLALRQAIMAVASGYSEIVVAAGAEKMTDVGSEEASSALAAAADREWEGMAGATFPGLYAMIAKLHMHMYGTTGEQLAEVAVKNHKNGSFNPIAQYKNTITVDNVLNSIMVADPLHIFDCSPITDGASALVLAPAEIAHKYTDTPIYIKATAQASDTIALHDRRDITTLDATVMAAKRAYSMAKLTPEDIDLVEVHDCFTIAEICAIEDLGFAEKGKGGIVTENGETAIGGRIPVNTSGGLKACGHPVGATGIKQAVEIVTQLRGEAGKRQVEGAEYGMTHNVGGSGATAVVHIFSRGM
MRDVQKQYNKQEGFVQGYSIIDSYSEDEIPKDGKRSTIQLVHEMGLEKARRIYGENYQCLVATQCDGKSGLYHNHLISNAVGNDGKSQRGDMTKWTKLAEISDQVMIDYGYTPLDKNNWRLNKTRKAEARSKGEYVSPNERKARKNGMTLAKDEVREQIQKVIDDETVKSFEDFKQMLNEEYQIGVEDAGTKDGENIKYSFSYTNKKGETSEKTIKAKTLSKEDYTLSGVKSKIEDKLLETGNFEINENDLTQQQQQMLSNLIVPEDDEDELELEFDDESLAFLDQINEEVKEYGREKHSSKATRNNQRVEKQHRDHQRHVENNERSTTRTKSSSKRAKDKDAGFELG
MREVLLEKLRTEKFLQIALDFIDINDAIKVVNEVKDLENEIIEIGTPLLKSFGIEGIRKIKSLVPDKIIVADTKTADAGDVEVEIAKLGGAHIMTVLGIMDDSTIYSAVKKARELDILVQADLINVKNVYERSKELKQLGVDIIGFHVGLDVQKSRGISVADLKNEIRKVSELNLIISIAGGLNKDRILELIDLPVSIYVVGGAITRSKEPKNVSKEIVNILKGR
MRFFIALPAHAKRCRRAWRMEFISALPVGFAMNRRGLELRELLPLIPAEKLLIETDAPYLLPRDLTPKPSSRRNEPAHLPHILQRIAHWRGEDAAWLAATTDANVKTLFGIAFLEHHHHHH
MRFITIAAVLLVSSLLIVEASSIRDKRQSCGCASQVQPSCSCQQATQPQQYSCSCQNTAPVQTSCSCAQPVQQVTYQVQTSQCAPACQQSCQNQCQFAPSMNECQSSCQQTCQTSSCYTQIAAPAPVQCQPSCMPACEQSCVAPAPVTVQCVPQCQQKCTQQCVQAQPIQQCQPQCQQQCVQQCAPTVAPQVINVNLGISAQCAPQCQQQCQQQCLLQQVPVQQCYQECTQPCQTTCQQAAPQCVQQCAPQCQQPSAPQCQQCQNTCQQYAPVCQQQCAPQCTLPSAPACQQCQTSCQQTQQCQQQCIPQCQQPAAPQCQQCQSACQSPVVAPQIVTVILEPSVSQSAQCVPQCQQSCQQQCIQQQQPMQQCAPACTQSCYQSCSTAQLVQMPCLTQSVNSCSCQQNYSPCGNGQCCKRM

Soluble on expression in E. coli, soluble:
MQYKLILNGKTLKGETTTEAVDAATAEKVFKQYANDNGVDGEWTYDDATKTFTVTEGSMAGGAWGRLACYLEFLKKEELKEFQLLLANKAHSRSSSGETPAQPEKTSGMEVASYLVAQYGEQRAWDLALHTWEQMGLRSLCAQAQEGAGHSLEHHHHHH
MQYLEKKEIKEIQLALLDYIDETCKKHDIPYFLSYGTMLGAIRHKGMIPWDDDIDISLYREDYERLLKIIEEENHPRYKVLSYDTSSWYFHNFASILDTSTVIEDHVKYKRHDTSLFIDVFPIDRFTDLSIVDKSYKYVALRQLAYIKKSRAVHGDSKLKDFLRLCSWYALRFVNPRYFYKKIDQLVKNAVTNTPQYEGGVGIGKEGMKEIFPVDTFKELILTEFEGRMLPVPKKYDQFLTQMYGDYMTPPSKEMQEWYSHSIKAYRKNLEHHHHHH
MRADELPSKEEIEMHKDSCKYFSNDTEEEETEDEEENGEVAHAKAVAEEFGKSSKSKNVSSSMELDDEVAEGLKELDMDNYDEEDDGIEIFSSGRGDLYYKSNEMDPYLKRNDDHDDDSDDDPPILPTDLVIVCAMTDDKEANRLDVYVSEDTSHGSPNMYNHHYRIIPAIPLCTAWLDCPLKGGERGNFLAVGSDGTPTIEIWDLDAWFDMLPCVQLGGQNKEGNYKQGSHTRSVLGLAWNKEFRNILASASADKKVKVWDVATGTCKITMEHHTKEVQAVAWNHYAPEVLLSGSFDQTVVLKDGRQPSHSGFKWSVMSDVESLAWDPHSEHSFVVSLEDGTVKGFDVRQASISASESNPSFTINGHDEAATSVSYNISAPNLLATGSKDRTVKLWDLSNNEPSCIATHNPNAGGLFFIAFSPDNPFLLAMGGVMGELKLWDTLSDTNVSSRYGSREVRP
MRAVFRTDIGQIREHNEDSGGVFVNQSGQYLAVVADGMGGHRAGDVASSMAVAYLQERWEKESSLASPAEAEQWLKTQIAAANEQLFRHACSHPECQGMGTTVVAAVCANSFATVAHIGDSRCYVLNKSGIQQLTDDHSLVNELVKSGQLSKEAAEHHPRKNVLLRALGTEPAVKIDVKTVALDEGDMLLLCSDGLSNKVPEADMIHILTGAGTLEEKAEALIQLANGRGGEDNISLAVIDVSAEREGG
MRETHLRSILHTIPDAMIVIDGHGIIQLFSTAAERLFGWSELEAIGQNVNILMPEPDRSRHDSYISRYRTTSDPHIIGIGRIVTGKRRDGTTFPMHLSIGEMQSGGEPYFTGFVRDLTEHQQTQARLQELQ
MRGLRKEALEELMKLLNMKDFPYRIEGIDISHLQGKYTVASLVVFEDGFPKKGDYRRYKIEQDHPDDYESIRTVVKRRYSKHPLPNLLFVDGGIGQVNAAIEALKEIGKDCPVVGLAKKEETVVFENREIHLPHDHPVLRLLVQIRDETHRFAVSYHRKRREKESLRSVLDNVPGIGPIRKKKLIEHFGSLENIRSASLEEIARVIGSTEIARRVLDILG
MRGLSRRVQAMKPDAVVAVNAKALELRRQGVDLVALTAGEPDFDTPEHVKEAARRALAQGKTKYAPPAGIPELREALAEKFRRENGLSVTPEETIVTVGGSQALFNLFQAILDPGDEVIVLSPYWVSYPEMVRFAGGVVVEVETLPEEGFVPDPERVRRAITPRTKALVVNSPNNPTGAVYPKEVLEALARLAVEHDFYLVSDEIYEHLLYEGEHFSPGRVAPEHTLTVNGAAKAFAMTGWRIGYACGPKEVIKAMASVSRQSTTSPDTIAQWATLEALTNQEASRAFVEMAREAYRRRRDLLLEGLTALGLKAVRPSGAFYVLMDTSPIAPDEVRAAERLLEAGVAVVPGTDFAAFGHVRLSYATSEENLRKALERFARVLGRA
MRGSHHHHHHGMASMTGGQQMGRDLYDDDDKMSVIKPEMKMKYFMDGSVNGHEFTVEGEGTGKPYEGKHKITLDVTKGGPLPFAFDLLSTVFSYGNRCLTKYPDDIPDYFKQCFPGGYSWERKFEFEDGGLAIAKAEISLKGNCFEHKSTIEGTFPDSSPIAQNKTLGWEPSTEKMTVRDGSMKGDDAAYLKLVGGGNHKCYFTTTYTAKKKIPNLPQSHFIGHRISSVVNGTKIGVMEDAIAHLYPFNGVPCQ
MRGSHHHHHHGSTTFNIQDGPDFQDRVVNSETPVVVDFHAQWCGPCKILGPRLEKMVAKQHGKVVMAKVDIDDHTDLAIEYEVSAVPTVLAMKNGDVVDKFVGIKDEDQLEAFLKKLIG
MRGSHHHHHHMDYASVAMAAAPTTTTTTNVSLRRQRHRKEKLLVLMGATGTGKSRLSIDLAAHFPLEVINSDKMQVYKGLDITTNKISVPDRGGVPHHLLGEVDPARGELTPADFRSLAGKAVSEITGRRKLPVLVGGSNSFIHALLVDRFDSSGPGVFEEGSHSVVSSELRYDCCFLWVDVSVKVLTDYLAKRVDDMLELGMFDELAEFYSPEDEDHDEDSATRTGLRKAIGVPEFDRYFEKFRPGDVEGEDPGRDRVRRGAFEEAVRAIKENTCHLAKRQIGKILRLKGAGWDLRRLDATESFRAAMTSDSGEKCTEIWEKQVLEPSVKIVSRFLDE
MRGSHHHHHHTDPALRAIKVYGVPGWGSTISELMLTLADIPYQFVDVSGFDHEGASRELLKTLNPLCQVPTLALENDEIMTETAAIALMVLDRRPDLAPPVGRAERQLFQRLLVWLVANVYPTFTFADYPERWAPDAPEQLKKNVIEYRKSLYIWLNSQLTAEPYAFGEQLTLVDCYLCTMRTWGPGHEWFQDNATNISAIADAVCQLPKLQEVLKRNEIIGLCGR
